Results reported in patent US20200377588A1, “Highly Versatile Method of Presenting Cyclic Peptide on Protein Structure” (The University of Tokyo, priority 2017, published 2020).
Blank lines part the entries; values can stand above or below the molecule they belong to.

What was measured:
[1] = target: T1, Plexin B1-PA (Homo sapiens, UniProt O43157); assay: pull-down type binding experiment, Plexin B1-PA captured on NZ-1 Sepharose, SDS-PAGE
T1 construct: made in house; host or cells: Expi293F cells (secreted, culture supernatant)
T1 sequence (O43157 20-1490 limits assumed): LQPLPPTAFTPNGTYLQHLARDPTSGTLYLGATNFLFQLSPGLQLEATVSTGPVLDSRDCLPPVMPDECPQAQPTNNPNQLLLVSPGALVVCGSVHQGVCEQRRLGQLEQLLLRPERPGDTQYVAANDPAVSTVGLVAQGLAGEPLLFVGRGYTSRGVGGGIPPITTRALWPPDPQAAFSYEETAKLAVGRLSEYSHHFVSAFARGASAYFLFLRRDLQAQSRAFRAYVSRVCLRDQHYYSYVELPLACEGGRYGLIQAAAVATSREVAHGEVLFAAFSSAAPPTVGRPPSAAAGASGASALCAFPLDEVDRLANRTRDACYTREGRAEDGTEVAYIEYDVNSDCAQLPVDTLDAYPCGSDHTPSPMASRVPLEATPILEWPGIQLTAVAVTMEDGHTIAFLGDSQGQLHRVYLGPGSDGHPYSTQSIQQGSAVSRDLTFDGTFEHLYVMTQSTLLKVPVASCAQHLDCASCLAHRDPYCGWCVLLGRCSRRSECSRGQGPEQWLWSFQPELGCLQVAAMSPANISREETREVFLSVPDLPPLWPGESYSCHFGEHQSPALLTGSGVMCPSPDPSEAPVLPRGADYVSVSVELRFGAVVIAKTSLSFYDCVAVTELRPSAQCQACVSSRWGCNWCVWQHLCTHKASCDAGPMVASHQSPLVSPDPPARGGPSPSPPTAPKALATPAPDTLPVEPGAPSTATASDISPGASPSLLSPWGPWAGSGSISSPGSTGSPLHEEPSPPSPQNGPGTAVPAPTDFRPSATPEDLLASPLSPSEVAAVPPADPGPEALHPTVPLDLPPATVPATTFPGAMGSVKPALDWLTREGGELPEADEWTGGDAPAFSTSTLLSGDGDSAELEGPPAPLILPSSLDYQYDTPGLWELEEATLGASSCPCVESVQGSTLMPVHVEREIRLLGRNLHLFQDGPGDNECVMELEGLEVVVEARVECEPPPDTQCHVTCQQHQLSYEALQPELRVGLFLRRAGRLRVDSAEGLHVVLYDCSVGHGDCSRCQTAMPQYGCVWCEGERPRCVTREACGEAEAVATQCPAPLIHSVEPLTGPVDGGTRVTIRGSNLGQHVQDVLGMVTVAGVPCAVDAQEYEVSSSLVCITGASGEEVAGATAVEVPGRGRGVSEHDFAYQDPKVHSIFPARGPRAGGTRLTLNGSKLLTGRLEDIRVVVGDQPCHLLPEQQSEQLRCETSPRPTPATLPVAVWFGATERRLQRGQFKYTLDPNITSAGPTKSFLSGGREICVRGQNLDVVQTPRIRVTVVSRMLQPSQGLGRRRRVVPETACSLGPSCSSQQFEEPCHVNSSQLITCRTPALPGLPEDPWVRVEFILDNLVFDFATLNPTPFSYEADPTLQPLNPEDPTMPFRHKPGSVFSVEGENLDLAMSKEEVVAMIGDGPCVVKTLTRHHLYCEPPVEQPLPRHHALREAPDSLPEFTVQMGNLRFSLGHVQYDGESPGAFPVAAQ
Procedure: (§1) A pull-down type binding experiment was performed to study whether or not Fn10-Fc having various cyclic peptides fused therein retained its binding ability, which the cyclic peptides had before fusion, to binding molecules. In accordance with the method described in Protein Exp. Purification, 2014, 95, 240-247, respective constructs encoding fusion proteins having a PA tag (product of Wako Pure Chemical Industries) added to the C terminus of an extracellular region of four binding molecules (each, single-pass membrane receptor) were created and the resulting constructs were each incorporated in an expression vector pcDNA3.1 (product of Thermo Fisher Scientific). After transient expression in Expi293F cells by the above-described method while using the vector, respective culture supernatants containing Plexin B1-PA, Met-PA, EGFR-PA, and TrkB-PA, which were soluble receptor fragments, were prepared.
(§2) To 0.5 mL of the culture supernatant containing the PA-tag added receptor extracellular region, 30 μL of Sepharose (product of Wako Pure Chemical Industries) on which NZ-1, an anti-PA tag antibody, was immobilized and the resulting mixture was mixed by rotation for 2 hours to capture the binding molecule on Sepharose. […]

[2] = target: T2, TrkB-PA (Homo sapiens, UniProt Q16620); assay: pull-down type binding experiment, TrkB-PA captured on NZ-1 Sepharose, SDS-PAGE; conditions: Example 1, Fn10-Fc mutants, culture supernatant, FIG. 5
T2 construct: made in house; host or cells: Expi293F cells (secreted, culture supernatant)
Procedure: as §1, §2

[3] = target: T3, Met-PA (Homo sapiens, UniProt P08581); assay: pull-down type binding experiment, Met-PA captured on NZ-1 Sepharose, SDS-PAGE; conditions: Example 1, Fn10-Fc mutants, culture supernatant, FIG. 5
T3 construct: made in house; host or cells: Expi293F cells (secreted, culture supernatant)

[4] = target: T4, EGFR-PA (Homo sapiens, UniProt P00533); assay: pull-down type binding experiment, EGFR-PA captured on NZ-1 Sepharose, SDS-PAGE; conditions: Example 1, Fn10-Fc mutants, culture supernatant, FIG. 5
T4 construct: made in house; host or cells: Expi293F cells (secreted, culture supernatant)
Procedure: as §1, §2

[5] = target: T5, Plexin B1-Fc (Homo sapiens, UniProt O43157); assay: pulldown, Plexin B1-Fc captured on protein A-Sepharose, SDS-PAGE; format: binding; conditions: Example 7, PLAP mutants, FIG. 27
T5 construct: Protein A Sepharose that had captured a soluble receptor fragment Plexin B1-Fc therein
T5 sequence (O43157 20-1490 limits assumed): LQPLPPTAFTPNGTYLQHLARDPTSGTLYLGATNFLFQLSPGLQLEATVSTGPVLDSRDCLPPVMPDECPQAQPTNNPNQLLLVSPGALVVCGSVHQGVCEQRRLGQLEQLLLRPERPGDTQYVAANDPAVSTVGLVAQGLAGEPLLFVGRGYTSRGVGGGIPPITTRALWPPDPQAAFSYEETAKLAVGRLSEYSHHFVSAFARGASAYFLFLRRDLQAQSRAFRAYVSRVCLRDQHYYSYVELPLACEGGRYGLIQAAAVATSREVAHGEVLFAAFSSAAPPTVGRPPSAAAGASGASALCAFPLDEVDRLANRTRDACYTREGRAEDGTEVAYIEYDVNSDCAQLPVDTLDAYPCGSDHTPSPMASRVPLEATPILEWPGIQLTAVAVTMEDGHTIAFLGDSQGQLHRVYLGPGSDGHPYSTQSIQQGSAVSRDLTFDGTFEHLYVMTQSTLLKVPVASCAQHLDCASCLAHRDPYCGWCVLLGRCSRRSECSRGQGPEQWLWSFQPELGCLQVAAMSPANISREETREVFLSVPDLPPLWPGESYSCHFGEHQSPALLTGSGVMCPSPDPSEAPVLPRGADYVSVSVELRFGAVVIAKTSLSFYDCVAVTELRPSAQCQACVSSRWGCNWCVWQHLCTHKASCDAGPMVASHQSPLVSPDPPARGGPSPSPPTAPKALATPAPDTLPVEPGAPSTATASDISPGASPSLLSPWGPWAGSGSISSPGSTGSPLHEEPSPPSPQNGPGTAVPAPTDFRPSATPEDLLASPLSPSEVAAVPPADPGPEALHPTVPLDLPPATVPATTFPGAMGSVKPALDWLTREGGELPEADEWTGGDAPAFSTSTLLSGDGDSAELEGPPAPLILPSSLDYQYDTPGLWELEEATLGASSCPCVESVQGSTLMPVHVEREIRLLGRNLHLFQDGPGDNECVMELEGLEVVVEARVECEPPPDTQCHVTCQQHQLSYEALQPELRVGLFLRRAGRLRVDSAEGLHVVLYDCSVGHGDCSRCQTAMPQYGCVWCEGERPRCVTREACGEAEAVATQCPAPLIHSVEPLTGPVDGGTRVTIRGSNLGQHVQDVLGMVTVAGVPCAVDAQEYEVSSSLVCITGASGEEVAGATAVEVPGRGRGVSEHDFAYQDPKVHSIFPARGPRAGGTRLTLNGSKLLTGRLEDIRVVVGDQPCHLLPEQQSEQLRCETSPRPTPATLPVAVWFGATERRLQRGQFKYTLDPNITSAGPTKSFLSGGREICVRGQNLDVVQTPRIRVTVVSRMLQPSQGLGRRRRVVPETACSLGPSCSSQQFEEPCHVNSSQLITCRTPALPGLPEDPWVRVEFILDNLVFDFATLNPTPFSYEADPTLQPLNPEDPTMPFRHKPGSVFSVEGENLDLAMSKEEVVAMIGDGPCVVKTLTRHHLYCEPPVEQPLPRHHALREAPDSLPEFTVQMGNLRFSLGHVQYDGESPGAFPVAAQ
Excerpt: It is to be noted, however, that for the mP6-9 peptide fusion protein, not Plexin B1-PA but Plexin B1-Fc protein was used as a binding molecule and as pulldown beads, not NZ-1-Sepharose but protein A-Sepharose was used.

[6] = target: T6, Met-Fc (Homo sapiens, UniProt P08581); assay: pulldown, Met-Fc captured on Protein A Sepharose, SDS-PAGE; format: binding; conditions: Example 7, PLAP mutants, FIG. 27
T6 construct: captured a soluble receptor fragment Plexin B1-Fc or Met-Fc therein
Excerpt: Binding of the resulting cyclic peptide fusion protein (PLAP mutant) to Protein A Sepharose that had captured a soluble receptor fragment Plexin B1-Fc or Met-Fc therein by the method described above I Example 1 was studied by the pulldown method.

T3 sequence (P08581 25-932 limits assumed): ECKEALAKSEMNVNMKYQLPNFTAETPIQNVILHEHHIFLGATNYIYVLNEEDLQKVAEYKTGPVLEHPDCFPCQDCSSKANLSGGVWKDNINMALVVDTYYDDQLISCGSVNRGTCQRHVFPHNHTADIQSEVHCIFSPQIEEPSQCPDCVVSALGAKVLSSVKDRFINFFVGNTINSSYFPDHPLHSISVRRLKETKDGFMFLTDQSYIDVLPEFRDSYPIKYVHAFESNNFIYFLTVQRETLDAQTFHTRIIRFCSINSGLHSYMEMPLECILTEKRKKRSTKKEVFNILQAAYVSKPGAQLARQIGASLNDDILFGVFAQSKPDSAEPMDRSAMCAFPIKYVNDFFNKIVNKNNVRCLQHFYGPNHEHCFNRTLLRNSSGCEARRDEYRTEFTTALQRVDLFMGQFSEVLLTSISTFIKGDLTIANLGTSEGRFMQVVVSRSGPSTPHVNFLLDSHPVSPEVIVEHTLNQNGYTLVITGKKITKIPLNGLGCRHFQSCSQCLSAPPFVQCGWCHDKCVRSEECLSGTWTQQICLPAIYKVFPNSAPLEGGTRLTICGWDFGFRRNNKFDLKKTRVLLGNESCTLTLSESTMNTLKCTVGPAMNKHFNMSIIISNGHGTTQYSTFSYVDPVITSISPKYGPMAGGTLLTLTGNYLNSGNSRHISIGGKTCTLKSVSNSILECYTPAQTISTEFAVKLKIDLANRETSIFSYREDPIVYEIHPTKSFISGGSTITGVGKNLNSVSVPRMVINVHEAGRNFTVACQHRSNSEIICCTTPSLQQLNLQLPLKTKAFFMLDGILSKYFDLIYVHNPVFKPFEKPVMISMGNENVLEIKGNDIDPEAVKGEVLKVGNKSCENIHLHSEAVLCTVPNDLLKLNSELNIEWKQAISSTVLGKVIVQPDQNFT
T6 sequence (P08581 25-932 limits assumed): as above

binding to Plexin B1-PA (pulldown) ([1]; Example 1, Fn10-Fc mutants, culture supernatant, FIG. 5): did not show a binding property
binding to TrkB-PA (pulldown) [2]: did not show a binding property
binding to Met-PA (pulldown) [3]: did not show a binding property
binding to EGFR-PA (pulldown) [4]: did not show a binding property
Molecule: Fn10-Fc: tenth Type III repeat domain of human fibronectin (residues 1418 to 1509) fused to human IgG1 Fc, no peptide inserted; control

binding to Plexin B1-PA (pulldown) ([1]; Example 5, hGH mutants, FIG. 20B): does not bind to Plexin B1-PA
Molecule: hGH: full-length human growth hormone with Hisx8 tag and TEV site, no cyclic peptide fused; control

binding to Plexin B1-Fc (pulldown) [5]: does not bind
binding to Met-Fc (pulldown) [6]: does not bind
B1: PLAP: full-length human placental alkaline phosphatase with Myc and Hisx6 tags, no cyclic peptide fused; control (protein, UniProt P05187 1-535, looked up)
chain: MLGPCMLLLLLLLGLRLQLSLGIIPVEEENPDFWNREAAEALGAAKKLQPAQTAAKNLIIFLGDGMGVSTVTAARILKGQKKDKLGPEIPLAMDRFPYVALSKTYNVDKHVPDSGATATAYLCGVKGNFQTIGLSAAARFNQCNTTRGNEVISVMNRAKKAGKSVGVVTTTRVQHASPAGTYAHTVNRNWYSDADVPASARQEGCQDIATQLISNMDIDVILGGGRKYMFRMGTPDPEYPDDYSQGGTRLDGKNLVQEWLAKRQGARYVWNRTELMQASLDPSVTHLMGLFEPGDMKYEIHRDSTLDPSLMEMTEAALRLLSRNPRGFFLFVEGGRIDHGHHESRAYRALTETIMFDDAIERAGQLTSEEDTLSLVTADHSHVFSFGGYPLRGSSIFGLAPGKARDRKAYTVLLYGNGPGYVLKDGARPDVTESESGSPEYRQQSAVPLDEETHAGEDVAVFARGPQAHLVHGVQEQTFIAHVMAFAACLEPYTACDLAPPAGTTDAAHPGRSVVPALLPLLAGTLLLLETATAP
modifications: full-length Myc and His6 tags
notes: full-length human placental alkaline phosphatase with Myc and Hisx6 tags, no cyclic peptide fused; control
